# Measured values: the supplement of paper PMC9112550, “Optimization of the antimicrobial peptide Bac7 by deep mutational scanning” (BMC Biology, 2022)
# Tested on: Escherichia coli TOP10
# Test: shrunken log2 fold change of peptide-encoding DNA abundance (4.5 h post-induction vs induction); higher = less antimicrobial activity (less host growth inhibition)
# Settings: time post-induction: 4.5 h; library: site-saturation at positions 5, 18, 19, 20
# 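Note: peptides expressed intracellularly from a pBAD plasmid library in pooled LB shake-flask culture, induced with 0.3% L-arabinose, DNA abundance read by NGS, three biological replicates, DESeq2 with apeglm shrinkage.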
row,Sequence,shrunken log2 fold change
1,RRIRGRPPRLPRPRPRPVLKPRP,0.402
2,RRIRERPPRLPRPRPRPRGFPRP,-0.0872
3,RRIRRRPPRLPRPRPRPPDRPRP,0.21
4,RRIRTRPPRLPRPRPRPAGCPRP,0.316
5,RRIRHRPPRLPRPRPRPLHLPRP,-0.0926
6,RRIRDRPPRLPRPRPRPHYRPRP,-0.562
7,RRIRERPPRLPRPRPRPWYTPRP,3.82
8,RRIRTRPPRLPRPRPRPSWAPRP,0.195
9,RRIRFRPPRLPRPRPRPACGPRP,0.0797
10,RRIRVRPPRLPRPRPRPMTYPRP,-0.494
11,RRIRYRPPRLPRPRPRPTWVPRP,0.18
12,RRIRWRPPRLPRPRPRPVHNPRP,-0.152
13,RRIRDRPPRLPRPRPRPEYYPRP,-0.00627
14,RRIRWRPPRLPRPRPRPFSMPRP,-0.0921
15,RRIRRRPPRLPRPRPRPKNVPRP,-0.00431
16,RRIRHRPPRLPRPRPRPLKHPRP,-0.869
17,RRIRDRPPRLPRPRPRPWCDPRP,0.211
18,RRIRKRPPRLPRPRPRPDNWPRP,0.235
19,RRIRNRPPRLPRPRPRPKTLPRP,-0.134
20,RRIRMRPPRLPRPRPRPFIYPRP,0.892
21,RRIRMRPPRLPRPRPRPVTGPRP,-0.00102
22,RRIRDRPPRLPRPRPRPWVCPRP,-0.0108
23,RRIRLRPPRLPRPRPRPINFPRP,-0.426
24,RRIRMRPPRLPRPRPRPTCPPRP,0.128
25,RRIRRRPPRLPRPRPRPSIRPRP,-0.219

row,Sequence,shrunken log2 fold change
1,RRIRGRPPRLPRPRPRPAAAPRP,2.36
2,RRIRIRPPRLPRPRPRPIANPRP,-0.0104
3,RRIRTRPPRLPRPRPRPKISPRP,-0.932
4,RRIRNRPPRLPRPRPRPSKDPRP,-0.285
5,RRIRTRPPRLPRPRPRPADSPRP,0.0603
6,RRIRQRPPRLPRPRPRPDKMPRP,0.021
7,RRIRHRPPRLPRPRPRPTIRPRP,-0.689
8,RRIRSRPPRLPRPRPRPIEKPRP,-0.0173
9,RRIRRRPPRLPRPRPRPICKPRP,0.0422
10,RRIRWRPPRLPRPRPRPWHGPRP,-0.368
11,RRIRGRPPRLPRPRPRPTKDPRP,0.7
12,RRIRRRPPRLPRPRPRPYKNPRP,-0.47
13,RRIRTRPPRLPRPRPRPDHAPRP,0.283
14,RRIRSRPPRLPRPRPRPRYAPRP,-0.0842
15,RRIRTRPPRLPRPRPRPKESPRP,0.0841
16,RRIRFRPPRLPRPRPRPEEQPRP,0.162
17,RRIRTRPPRLPRPRPRPHSSPRP,-0.119
18,RRIRNRPPRLPRPRPRPKGYPRP,-0.0233
19,RRIRHRPPRLPRPRPRPEHAPRP,-0.0423
20,RRIRYRPPRLPRPRPRPRLCPRP,-0.0154
21,RRIRCRPPRLPRPRPRPWKLPRP,-0.269
22,RRIRNRPPRLPRPRPRPKKAPRP,-0.0485
23,RRIRERPPRLPRPRPRPSMYPRP,-0.516
24,RRIRFRPPRLPRPRPRPVAAPRP,1.41
25,RRIRGRPPRLPRPRPRPIVCPRP,0.356

row,Sequence,shrunken log2 fold change
1,RRIRYRPPRLPRPRPRPTQVPRP,0.188
2,RRIRCRPPRLPRPRPRPPWQPRP,0.389
3,RRIRCRPPRLPRPRPRPPEHPRP,0.0824
4,RRIRARPPRLPRPRPRPGAGPRP,0.767
5,RRIRHRPPRLPRPRPRPPQNPRP,0.613
6,RRIRRRPPRLPRPRPRPGISPRP,0.0929
7,RRIRSRPPRLPRPRPRPIDRPRP,0.0178
8,RRIRGRPPRLPRPRPRPMKNPRP,0.68
9,RRIRFRPPRLPRPRPRPPIMPRP,-0.451
10,RRIRGRPPRLPRPRPRPRTGPRP,0.617
11,RRIRFRPPRLPRPRPRPMNEPRP,-0.595
12,RRIRNRPPRLPRPRPRPQDPPRP,-0.296
13,RRIRLRPPRLPRPRPRPGRDPRP,0.26
14,RRIRPRPPRLPRPRPRPRRAPRP,0.525
15,RRIRFRPPRLPRPRPRPTWAPRP,0.0327
16,RRIRTRPPRLPRPRPRPKTPPRP,-0.0565
17,RRIRCRPPRLPRPRPRPFFEPRP,-0.0214
18,RRIRIRPPRLPRPRPRPHMIPRP,-0.602
19,RRIRYRPPRLPRPRPRPRSFPRP,-0.0868
20,RRIRYRPPRLPRPRPRPQCPPRP,-0.15
21,RRIRNRPPRLPRPRPRPPSQPRP,0.16
22,RRIRTRPPRLPRPRPRPAAHPRP,0.199
23,RRIRARPPRLPRPRPRPPHIPRP,0.455
24,RRIRQRPPRLPRPRPRPEAQPRP,0.285
25,RRIRERPPRLPRPRPRPKNPPRP,-0.503
